Measurements published in patent US20190144553A1 (published 2019).

Target: T1, WT hTNF (wild type human TNF-α, N-terminal 6×His tag) (human, UniProt P01375 77-233)
T1 construct: also called His-TNF
Assay: BLI (Octet RED96), His-tagged hTNF on HIS1K biosensor, soluble receptor in solution, global 1:1 fit
Procedure: KD values were calculated using global fitting with a 1:1 model (R²≥0.95).

T1 sequence (P01375 other isoform, or with tags, fused parts or gaps limits assumed): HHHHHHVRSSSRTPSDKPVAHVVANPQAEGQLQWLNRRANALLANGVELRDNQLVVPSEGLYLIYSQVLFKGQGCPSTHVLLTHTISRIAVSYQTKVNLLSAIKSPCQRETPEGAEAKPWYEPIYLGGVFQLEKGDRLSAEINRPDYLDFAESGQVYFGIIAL

B1: soluble hTNF-R1 (Peprotech) (receptor, human, UniProt P19438 41-201, looked up)
chain: DSVCPQGKYIHPQNNSICCTKCHKGTYLYNDCPGPGQDTDCRECESGSFTASENHLRHCLSCSKCRKEMGQVEISSCTVDRDTVCGCRKNQYRHYWSENLFQCFNCSLCLNGTVHLSCQEKQNTVCTCHAGFFLRENECVSCSNCKKSLECTKLCLPQIEN
notes: Bought soluble receptor used as analyte in the Octet assay; also called p55
Work on B1 yielded a Kd of 10.2 nM.
